Patent publication CN113372445A

Tests used:
[1] = target: PD-1 on GS-J2/PD-1 cells (human) (UniProt Q15116); assay: cell-based or functional assay
[2] = target: 人PD-1蛋白 (human) (UniProt Q15116); assay: BLI (ForteBio), antibody loaded on sensor, PD-1 protein 100-6.25 nM in solution
[3] = target: 人PD-1蛋白 (human) (UniProt Q15116); assay: competition ELISA: human PD-1 coated, antibody titrated together with biotin-labelled PD-L1 (competitor)

Chain of 人PD-1蛋白 (human) (Q15116 25-167 limits assumed): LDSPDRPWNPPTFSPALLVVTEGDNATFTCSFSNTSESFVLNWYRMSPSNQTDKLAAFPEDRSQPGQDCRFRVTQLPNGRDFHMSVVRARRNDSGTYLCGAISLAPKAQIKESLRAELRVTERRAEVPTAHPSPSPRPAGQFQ
Chain of PD-1 on GS-J2/PD-1 cells (human) (Q15116 25-288 limits assumed): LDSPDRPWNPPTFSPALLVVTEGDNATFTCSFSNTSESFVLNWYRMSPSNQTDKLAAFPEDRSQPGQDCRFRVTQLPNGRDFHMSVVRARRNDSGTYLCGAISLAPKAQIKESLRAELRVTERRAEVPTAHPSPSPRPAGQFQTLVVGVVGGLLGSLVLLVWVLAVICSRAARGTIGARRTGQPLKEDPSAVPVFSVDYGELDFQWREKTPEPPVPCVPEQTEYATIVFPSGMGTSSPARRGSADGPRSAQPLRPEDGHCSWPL

EC50(nM), luciferase reporter (RLU, 激活百分比) in GS-J2/PD-1 cells co-cultured with GS-C2/PD-L1 cells [1] [nM] | Kd [2] [nM] | koff [2] [s⁻¹] | kon [2] [M⁻¹ s⁻¹] | EC50 [3] [nM] | Substance
0.142 | 1.01 | 0.000286 | 283000 | 110 | Keytruda (antibody)
– | 1.63 | – | – | 175 | Opdivo (antibody)
